The target in the test is APNAnq 100 (100-kDa aminopeptidase N from Anopheles quadrimaculatus brush border membrane) (Anopheles quadrimaculatus). Briefly: SPR.

Regarding “Bacillus thuringiensis Cry11Ba toxin (trypsin-activated) (from UniProt Q45730 1-724) (natural protein)”, the koff (in general, the first-order rate constant of dissociation) worked out at 1.03e-07 s⁻¹ and the kon (commonly the rate constant with which the complex forms) turned out to be 184 M⁻¹ s⁻¹.

The values above are taken from paper PMC1533836.
